Earlier results in PMC12612446.

Biological target: HER2 (Homo sapiens) (UniProt P04626)

## trastuzumab
  Kd: 0.58 nM
